Experimental data from article PMC7526519 (2020).

Experiments:
[1] = target: SARS-CoV-2 receptor binding domain (RBD), His-tagged (SARS-CoV-2, UniProt P0DTC2 319-541); experiment: SPR
[2] = target: SARS-CoV receptor binding domain (RBD), His-tagged (SARS-CoV, UniProt P59594 306-527); experiment: SPR

B1: wild Bactrian camel ACE2 ectodomain fused with mouse Fc (Fc fusion)
chain: QSTTEELAKTFLEEFNHEAEDLSYQSSLASWNYNTNITDENVQKMNDARAKWSTFYEEKSKTAKTYPLEEIQNVTLKRQLQALQQSGASALSADKSKRLTTVLSTMSTIYSSGEVCDPNNPQECLVLEPGLDDIMENSKDYNQRLWAWEGWRAEVGKQLRPLYEEYVVLKNEMARANNYEDYGDYWRGDYEVMWAGDYDYSRDQLMGDVEHTFAEIKPLYEHLHAYVRAKLMDVYPSHISPTGCLPAHLLGDMWGRFWTNLYSLTVPFGQKPNIDVTEAMENQSWDAKRIFKEAEKFFVSIGLPNMTQGFWDNSMLTEPGDGRKVVCHPTAWDLGKGDFRIKMCTKVTMDDFLTAHHEMGHIQYDMAYAIQPFLLRNGANEGFHEAVGEIMSLSAATPHYLKALGLLPADFYEDSETEINFLLKQALTIVGTLPFTYMLEKWRWMVFKGEIPKEQWMQKWWEMKREIVGVVEPLPHDETYCDPACLFHVAEDYSFIRYYTRTIYQFQFHEALCQIAKHEGPLYKCDISNSTEAGQKLLQMLSLGKSEPWTLALEGLVGVKTMDVKPLLNYFEPLLTWLKDQNRNSFVGWSTDWTPYTDQSIKVRISLKSALGDKAYEWNDNEMYLFQSSLAYAMRKYFLKVQNQTILFGVEDVWVSDLKPRISFSFFVTSPKNVSDIIPRTEVEEAIRMSRSRINDAFRLDDNSLEFLGIQPTLGPPYEPPVT
Kd [1]: 272 nM
Kd [2]: 69.1 nM

B2: fulvous fruit bat ACE2 ectodomain fused with mouse Fc (Fc fusion)
chain: QSTPEELAKTFLEKFNTEAEDLFYQSSLASWDFNTNIIDENVQKMSKARATWSAFYDEQSKLAKTYQLDEIQDPELKLQLRILQQSGSSTLSADKTKRLNDILNTMSTIYSTGKICQPNNSQECLLLEPGLDDIMENSKDYSQRLWAWESWRSEVGKQLRPYYEEYVVLKNEMARGENYEDYGDYWRGDYETEGINGSAYTRDQLIEDVDRIFTEIKPLYEQLHAYVRTKLMDAYPSHISPTGCLPAHLLGDMWGRFWINLYPLTVPFEQKPNIDVTDEMVNQNWNAKRIFKEAEKFFVSLGLPNMTETFWEKSVLTEPDNDQKVACHPTAWDLGKGDFRIIMCTKVKMEDFLTAHHEMGHIQYYMAYATQPYLLRDGANEGFHEAVGEVISLSVATPNHLKNMGLLPPDFYEDNETEINFLLKQALNVVGTLPFTYMLEKWRWMVFKGEIPKEQWMEKWWEMKRELVGVVEPLPHDETYCDPASLFHVANDYSFIRYYTRTIFEFQFLEALCQIAQHEGPLYKCDIANSTEAGKKLHQMLSLGKSKPWTLALESIAGTKNMDVRPLLNYFEPLFTWLKEKNRNSFVGWSTDWSPYSGQSIKVRISLKAALGEKAYEWNDNEMYLFKSSIAYSLREYFLKVKNLTIPFGEEDVWVSDLKPRISFNFFVTSPQNVSEFIPRTEVEGAIRMSRSRINDAFRLDDDTLEFLGIEPTLGTPYQPPVT
Kd [1]: 1130 nM
Kd [2]: 412 nM

B3: horse ACE2 ectodomain fused with mouse Fc (Fc fusion)
chain: QSTTEDLAKTFLEKFNSEAEELSHQSSLASWSYNTNITDENVQKMNEAGARWSAFYEEQCKLAKTYPLEEIQNLTVKRQLQALQQSGSSVLSADKSKLNEILNTMSTIYSTGKVCNPSNPQECLLLEPGLDAIMENSKDYNQRLWAWEGWRSEVGKQLRPLYEEYVVLKNEMARANNYEDYGDYWRGDYEAEGPSGYDYSRDQLIEDVERTFAEIKPLYEHLHAYVRAKLMDTYPSHINPTGCLPAHLLGDMWGRFWTNLYSLTVPFGQKPNIDVTDAMVDQSWDAKRIFEEAEKFFVSVGLPNMTQGFWENSMLTEPGDGRKVVCHPTAWDLGKGDFRIKMCTKVTMDDFLTAHHEMGHIQYDMAYAVQPYLLRNGANEGFHEAVGEIMSLSAATPNHLKAIGLLPPDFYEDSETEINFLLKQALTIVGTLPFTYMLEKWRWMVFKGEIPKEEWMKKWWEMKREIVGVVEPVPHDETYCDPAALFHVANDYSFIRYYTRTIYQFQFQEALCQTAKHEGPLHKCDISNSTEAGQKLLQMLSLGKSEPWTLALERIVGVKNMDVRPLLNYFEPLFTWLKDQNKNSFVGWSTNWSPYADQSIKVRISLKSALGEKSYEWNDNEMYLFQSSVAYAMRVYFLKAKNQTILFGEEDVWVSDLKPRISFNFFVTSPKNASDIIPRTDVEEAIRMSRSRINDAFRLDDNTLEFLGIQPTLGPPYQPPVT
Kd [1]: 133 nM
Kd [2]: 141 nM

B4: cat ACE2 ectodomain fused with mouse Fc (Fc fusion)
chain: QSTTEELAKTFLEKFNHEAEELSYQSSLASWNYNTNITDENVQKMNEAGAKWSAFYEEQSKLAKTYPLAEIHNTTVKRQLQALQQSGSSVLSADKSQRLNTILNAMSTIYSTGKACNPNNPQECLLLEPGLDDIMENSKDYNERLWAWEGWRAEVGKQLRPLYEEYVALKNEMARANNYEDYGDYWRGDYEEEWTDGYNYSRSQLIKDVEHTFTQIKPLYQHLHAYVRAKLMDTYPSRISPTGCLPAHLLGDMWGRFWTNLYPLTVPFGQKPNIDVTDAMVNQSWDARRIFKEAEKFFVSVGLPNMTQGFWENSMLTEPGDSRKVVCHPTAWDLGKGDFRIKMCTKVTMDDFLTAHHEMGHIQYDMAYAVQPFLLRNGANEGFHEAVGEIMSLSAATPNHLKTIGLLSPGFSEDSETEINFLLKQALTIVGTLPFTYMLEKWRWMVFKGEIPKEQWMQKWWEMKREIVGVVEPVPHDETYCDPASLFHVANDYSFIRYYTRTIYQFQFQEALCRIAKHEGPLHKCDISNSSEAGKKLLQMLTLGKSKPWTLALEHVVGEKKMNVTPLLKYFEPLFTWLKEQNRNSFVGWNTDWRPYADQSIKVRISLKSALGDEAYEWNDNEMYLFRSSVAYAMREYFSKVKNQTIPFVEDNVWVSNLKPRISFNFFVTASKNVSDVIPRSEVEEAIRMSRSRINDAFRLDDNSLEFLGIQPTLSPPYQPPVT
Kd [1]: 85.7 nM
Kd [2]: 69.9 nM

B5: dog ACE2 ectodomain fused with mouse Fc (Fc fusion)
chain: QSTEDLVKTFLEKFNYEAEELSYQSSLASWNYNINITDENVQKMNNAGAKWSAFYEEQSKLAKTYPLEEIQDSTVKRQLRALQHSGSSVLSADKNQRLNTILNSMSTVYSTGKACNPSNPQECLLLEPGLDDIMENSKDYNERLWAWEGWRSEVGKQLRPLYEEYVALKNEMARANNYEDYGDYWRGDYEEEWENGYNYSRNQLIDDVELTFTQIMPLYQHLHAYVRTKLMDTYPSYISPTGCLPAHLLGDMWGRFWTNLYPLTVPFGQKPNIDVTNAMVNQSWDARKIFKEAEKFFVSVGLPNMTQEFWGNSMLTEPSDSRKVVCHPTAWDLGKGDFRIKMCTKVTMDDFLTAHHEMGHIQYDMAYAAQPFLLRNGANEGFHEAVGEIMSLSAATPNHLKNIGLLPPSFFEDSETEINFLLKQALTIVGTLPFTYMLEKWRWMVFKGEIPKDQWMKTWWEMKRNIVGVVEPVPHDETYCDPASLFHVANDYSFIRYYTRTIYQFQFQEALCQIAKHEGPLHKCDISNSSEAGQKLLEMLKLGKSKPWTYALEIVVGAKNMDVRPLLNYFEPLFTWLKEQNRNSFVGWNTDWSPYADQSIKVRISLKSALGEKAYEWNNNEMYLFRSSIAYAMRQYFSEVKNQTIPFVEDNVWVSDLKPRISFNFSVTSPGNVSDIIPRTEVEEAIRMYRSRINDVFRLDDNSLEFLGIQPTPGPPYEPPVT
Kd [1]: 98.9 nM
Kd [2]: 20 nM

B6: alpaca ACE2 ectodomain fused with mouse Fc (Fc fusion)
chain: QSTTEELAKTFLKEFNHEAEDRSYQSSLASWNYNTNITDENVQKMNDARAKWSTFYEEKSKAAKIYPLEEIENVTLKRQLQALQQSGASALSADKSKRLTTILNTMSSIYSSGEVCDPNNPQECLVLEPGLDDIMENSKDYNQRLWAWEGWRAEVGKQLRPLYEEYVVLKNEMARANNYEDYGDYWRGDYEVMWAGDYDYSRDQLMGDVEHTFAEIKPLYEHLHAYVRAKLMDAYPSRISPTGCLPAHLLGDMWGRFWTNLYSLTVPFGQKPNIDVTEAMENQSWDAKRIFKEAEKFFVSIGLPNMTQGFWDNSMLTEPGDGRKVVCHPTAWDLGKGDFRIKMCTKVTMDDFLTAHHEMGHIQYDMAYAIQPFLLRNGANEGFHEAVGEIMSLSAATPHYLKALGLLPADFYEDSETEINFLLKQALTIVGTLPFTYMLEKWRWMVFKGEIPKEQWMQKWWEMKREIVGVVEPLPHDETYCDPACLFHVAEDYSFIRYYTRTIYQFQFHEALCQIAKHEGPLYKCDISNSTEAGQKLLQMLSLGKSEPWTLALEALVGVKTMDVKPLLNYFEPLLTWLKDQNRNSFVGWSTDWTPYTDQSIKVRISLKSALGDKAYEWNDNEMYLFRSSLAYAMRNYFLTVQKQTILFGVEDVWVSDLKPRISFSFFVTSPKNVSDIIPRTEVEKAIRMSRSRINDAFRLDDNSLEFLGIQPTLGPPYEPP
Kd [2]: 54.9 nM
